Results: patent US20200270352A1 (PIERRE FABRE MEDICAMENT, published 2020)

B1: humanized antibody hz208F2 VH3/VL3 (hz208F2 H026/L024) (antibody, human IgG1, kappa, V domains shown)
VH: QVQLVQSGAEVKKPGASVKMSCKASGYTFTSYYIYWVKQAPGQGLEWLGWIWPGDGSTKYNEKFQGRVTLTADKSSNTAYMFLSSLRSEDTAVYFCASPMITPNYAMDYWGQGTLVTVSS
VL: DIQMTQSPSSLSASVGDRVTISCRASQDISKYLNWYQQKPGKAPKLLIYYTSRLHSGVPSRFSGRGSGTDYSLTISNLQPEDFATYFCQQGSTLPYTFGGGTKVEIKR
notes: also called H26/L024; first humanized form of 208F2
B2: murine antibody 212A11 (hybridoma CNCM I-4773) (antibody, V domains shown)
VH: QVQLQQSGPELVKPGASVKMSCKASGYTFTSYYIHWVKQRPGQGLEWIGWIWPGDGSTKYNEKFKGKTTLTADKSSSTAYMFLSSLTSEDSAVYFCASPMITPNYAMDYWGQGASVTVSS
VL: DIQMTQTTSSLSASLGDRVTISCRASQDINKYLNWYQQQPDGTVKLLIYYTSRLHSGVPSRFSGRGSGTDYSLTISNLEQEDIATYFCQQGSTLPYTFGGGTKLEIK
notes: also called m212A11
B3: chimeric antibody c212A11 (antibody, human IgG1, kappa, V domains shown)
VH: QVQLQQSGPELVKPGASVKMSCKASGYTFTSYYIHWVKQRPGQGLEWIGWIWPGDGSTKYNEKFKGKTTLTADKSSSTAYMFLSSLTSEDSAVYFCASPMITPNYAMDYWGQGASVTVSS
VL: DIQMTQTTSSLSASLGDRVTISCRASQDINKYLNWYQQQPDGTVKLLIYYTSRLHSGVPSRFSGRGSGTDYSLTISNLEQEDIATYFCQQGSTLPYTFGGGTKLEIKR
B4: murine antibody 214F8 (hybridoma CNCM I-4775) (antibody, V domains shown)
VH: QVQLQQSGSELVKPGASVKLSCKASGYTFTSYYIHWVKQRPGQGLEWIGWIWPGDGSTKYNERFKGKTTLTADKSSSTAYMFLSSLTSEDSAVYFCASPMITPNYAMDYWGQGASVTVSS
VL: DIQMTQTTSSLSASLGDRVTFSCRASQDISKYLNWYQQQPDGTIKLLIYYTSRLHSGVPSRFSGRGSGTDYSLTITNLEQEDIATYFCQQGSALPYTFGGGTKLEIK
notes: also called m214F8
B5: chimeric antibody c213B10 (antibody, human IgG1, kappa)
heavy: not shown
light: DIQMTQTTSSLSASLGDRVTISCRASQDISKYLNWYQQQPDGTIKLLIYYTSRLHSGVPSRFSGRGSGTDYSLTITNLEQEDIATYFCQQGSALPYTFGGGTKLEIKRTVAAPSVFIFPPSDEQLKSGTASVVCLLNNFYPREAKVQWKVDNALQSGNSQESVTEQDSKDSTYSLSSTLTLSKADYEKHKVYACEVTHQGLSSPVTKSFNRGEC
B6: chimeric antibody c208F2 (antibody, human IgG1, kappa, V domains shown)
VH: QVQLQQSGPELVKPGASVKMSCKASGYTFTSYYIYWVKQRPGQGLEWLGWIWPGDGSTKYNEKFKDKTTLTADKSSNTAYMFLSSLTSEDSAVYFCASPMITPNYAMDYWGQGASVTVSS
VL: DIQMTQTTSSLSASLGDRVTISCRASQDISKYLNWYQQQPDGTIKLLIYYTSRLHSGVPSRFSGRGSGTDYSLTISNVEQEDIATYFCQQGSTLPYTFGGGTKLEIKR
B7: chimeric antibody c214F8 (antibody, human IgG1, kappa)
heavy: not shown
light: DIQMTQTTSSLSASLGDRVTFSCRASQDISKYLNWYQQQPDGTIKLLIYYTSRLHSGVPSRFSGRGSGTDYSLTITNLEQEDIATYFCQQGSALPYTFGGGTKLEIKRTVAAPSVFIFPPSDEQLKSGTASVVCLLNNFYPREAKVQWKVDNALQSGNSQESVTEQDSKDSTYSLSSTLTLSKADYEKHKVYACEVTHQGLSSPVTKSFNRGEC
B8: chimeric antibody c219D6 (antibody, human IgG1, kappa, V domains shown)
VH: QVQLQQSGPELVKPGDSVKMSCKASGYSFTSYFIHWVKQRPGQGLEWIGWIWPGDGSTKYNEKFKGKTTLTTDKSSSTAYMFLNSLTSEDSAVYFCASPMITPNYAMDYWGQGASVTVSS
VL: DIQMTQTTSSLSASLGDRVTISCRASQDISKYLNWYQQQPDGTVKLLIYYTSRLHSGVPSRFSGRGSGTDYSLTISNLEQEDIATYFCQQGSTLPYTFGGGTKLEIKR
B9: murine antibody 219D6 (hybridoma CNCM I-4736) (antibody, V domains shown)
VH: QVQLQQSGPELVKPGDSVKMSCKASGYSFTSYFIHWVKQRPGQGLEWIGWIWPGDGSTKYNEKFKGKTTLTTDKSSSTAYMFLNSLTSEDSAVYFCASPMITPNYAMDYWGQGASVTVSS
VL: DIQMTQTTSSLSASLGDRVTISCRASQDISKYLNWYQQQPDGTVKLLIYYTSRLHSGVPSRFSGRGSGTDYSLTISNLEQEDIATYFCQQGSTLPYTFGGGTKLEIK
notes: also called m219D6
B10: murine antibody 213B10 (hybridoma CNCM I-4774) (antibody, V domains shown)
VH: QVQLQQSGSELVKPGASVKMSCKASGYTFTSYYIHWVKQRPGQGLEWIGWIWPGDGSTKYNERFKGKTTLTADKSSSTAYMFLSSLTSEDSAVYFCASPMITPNYAMDYWGQGASVTVSS
VL: DIQMTQTTSSLSASLGDRVTISCRASQDISKYLNWYQQQPDGTIKLLIYYTSRLHSGVPSRFSGRGSGTDYSLTITNLEQEDIATYFCQQGSALPYTFGGGTKLEIK
notes: also called m213B10
B11: murine antibody 208F2 (hybridoma CNCM I-4757) (antibody, V domains shown)
VH: QVQLQQSGPELVKPGASVKMSCKASGYTFTSYYIYWVKQRPGQGLEWLGWIWPGDGSTKYNEKFKDKTTLTADKSSNTAYMFLSSLTSEDSAVYFCASPMITPNYAMDYWGQGASVTVSS
VL: DIQMTQTTSSLSASLGDRVTISCRASQDISKYLNWYQQQPDGTIKLLIYYTSRLHSGVPSRFSGRGSGTDYSLTISNVEQEDIATYFCQQGSTLPYTFGGGTKLEIK
notes: also called m208F2

Experiments:
[1] = target: T1, human IGF-1R, native, on cells (MCF-7, hIGF-1R transfected cells, primary normal human cells) (human, UniProt P08069 31-1367); experiment: cell-based or functional assay
[2] = target: T2, human insulin receptor on cells (IM9 cells; hIR+ transfected cell line, NIH 3T3 IR+) (human, UniProt P06213 28-1382); experiment: FACS titration on NIH 3T3 IR+ cells
T2 construct: whole, on cells; also called human IR

[3] = target: T1, human IGF-1R, native, on cells (MCF-7, …); experiment: cell-based or functional assay; remark: listed apart in the source
[4] = target: T3, rmIGF-1R protein (murine IGF-1R extracellular domain, R&D Systems cat 6630-GR/Fc) (murine, UniProt Q60751 31-936); experiment: ELISA on coated rmIGF-1R, SNT at 5 µg/ml
T3 construct: extracellular domain; Bought reagent; not shown: Fc part implied by the catalogue number /Fc; not described
Method: In addition three ELISAs were performed (either before or after cloning) to study the binding of antibodies on the recombinant human (hIGF-1R) and murine (mIGF-1R) proteins, and on the recombinant human Insulin Receptor (hIR) protein. […] The plates were then blocked with PBS containing 0.5% gelatin (#22151, Serva Electrophoresis GmbH, Heidelberg, Germany) for 2 h at 37° C. Once the saturation buffer discarded by flicking plates, 100 μl of each supernatant dilution were added to each well (either undiluted hybridoma supernatant either supernatant serial dilutions) and incubated for 1 h at 37° C. […] Then, ELISA plates were washed 3-times and the TMB (#UP664782, Uptima, Interchim, France) substrate is added. After a 10 min incubation time at room temperature, the reaction was stopped using 1 M sulfuric acid and the optical density at 450 nm is measured.

[5] = target: T4, monkey IGF-1R on COS-7 cells (African green monkey kidney) (monkey (African green monkey)); experiment: FACS on Cos-7 cells (monkey IGF1R+), SNT at 5 µg/ml
T4 construct: whole, on cells; also called monkey native IGF-1R

[6] = target: T1, human IGF-1R, native, on cells (MCF-7, …); experiment: cell-based or functional assay; remark: listed apart in the source
[7] = target: T1, human IGF-1R, native, on cells (MCF-7, …); experiment: cell-based or functional assay; remark: listed apart in the source

T3 sequence (Q60751 31-936): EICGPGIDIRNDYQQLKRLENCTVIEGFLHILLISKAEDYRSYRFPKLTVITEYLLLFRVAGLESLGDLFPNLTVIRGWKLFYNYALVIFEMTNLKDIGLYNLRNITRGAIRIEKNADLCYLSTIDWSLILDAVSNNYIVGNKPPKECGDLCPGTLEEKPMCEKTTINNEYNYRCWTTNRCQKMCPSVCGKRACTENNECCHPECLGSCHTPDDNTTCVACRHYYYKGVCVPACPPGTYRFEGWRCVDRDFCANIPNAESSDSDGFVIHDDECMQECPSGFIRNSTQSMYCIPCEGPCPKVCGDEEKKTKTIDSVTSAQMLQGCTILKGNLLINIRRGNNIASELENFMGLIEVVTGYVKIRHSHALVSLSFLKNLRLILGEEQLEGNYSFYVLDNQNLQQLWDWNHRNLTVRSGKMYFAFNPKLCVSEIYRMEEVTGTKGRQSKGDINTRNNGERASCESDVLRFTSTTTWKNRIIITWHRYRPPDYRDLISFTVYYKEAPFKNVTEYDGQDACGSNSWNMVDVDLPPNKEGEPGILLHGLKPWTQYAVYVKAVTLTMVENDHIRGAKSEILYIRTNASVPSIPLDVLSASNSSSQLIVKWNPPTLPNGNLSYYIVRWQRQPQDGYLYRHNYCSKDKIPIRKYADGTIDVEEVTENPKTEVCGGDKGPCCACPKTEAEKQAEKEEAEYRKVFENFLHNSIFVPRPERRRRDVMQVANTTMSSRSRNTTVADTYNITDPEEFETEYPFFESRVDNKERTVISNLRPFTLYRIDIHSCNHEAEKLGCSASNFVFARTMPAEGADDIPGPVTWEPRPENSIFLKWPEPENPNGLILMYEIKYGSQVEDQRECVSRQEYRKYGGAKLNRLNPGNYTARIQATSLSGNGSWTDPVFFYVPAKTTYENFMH

Binder	inhibition of hIGF-1R phosphorylation in response to IGF-1 (MCF-7 cells) [3]	D.O 450 nm [4]	% of pIGF-1R compared to IGF-1 (MCF-7 cells, 10 µg/ml Ab) [3]	ΔMFI (MFI 4°C - MFI 37°C, MCF-7) [6]	ΔMFI_EC50 (MCF-7) [6]	MCF7 internalisation assay: % remaining rh IGF1R [7]	MCF7 internalisation assay: Δ (MFI 4°C - MFI 37°C) [7]	other results
B1	–	–	–	–	–	–	–	% internalization (MCF-7) [1]: 87%; ΔMFI (MFI 4°C - MFI 37°C, MCF-7, 10 µg/ml, 4 h) [1]: 344 MFI; binding result [2]: no binding (tested: log[M] about -7.2 (about 6e-8 M))
B2	> 80%	0.102 OD 450 nm	–	–	–	–	–	MFI [5]: 126 MFI
B3	–	–	< 10%	322 MFI	2.7e-10	–	–	–
B4	> 80%	0.102 OD 450 nm	–	–	–	29%	275 MFI	MCF7 internalisation assay: MFI 37°C [7]: 111 MFI
B5	–	–	< 10%	369 MFI	2.3e-10	–	–	–
B6	–	–	< 10%	288 MFI	1.8e-10	–	–	% internalization (MCF-7) [1]: 82%; ΔMFI (MFI 4°C - MFI 37°C, MCF-7, 10 µg/ml, 4 h) [1]: 278 MFI
B7	–	–	< 10%	403 MFI	2.2e-10	–	–	–
B8	–	–	< 10%	353 MFI	4.4e-10	–	–	–
B9	> 80%	0.112 OD 450 nm	–	–	–	30%	243 MFI	–
B10	> 80%	0.127 OD 450 nm	–	–	–	30%	271 MFI	–
B11	> 80%	0.099 OD 450 nm	–	–	–	27%	261 MFI	MCF7 internalisation assay: MFI 37°C [7]: 94 MFI; % internalization (MCF-7) [1]: 88%; ΔMFI (MFI 4°C - MFI 37°C, MCF-7, 10 µg/ml, 4 h) [1]: 294 MFI
